pKd: −log10 of the molar value. Several values for one entry are separate records, joined by “and”; a condition that tells them apart may be missing. Equal entries are not always repeated.
Biological target: FcRn
Assay: BLI

Chain of FcRn (main, as listed by the source, chain 1 of 2): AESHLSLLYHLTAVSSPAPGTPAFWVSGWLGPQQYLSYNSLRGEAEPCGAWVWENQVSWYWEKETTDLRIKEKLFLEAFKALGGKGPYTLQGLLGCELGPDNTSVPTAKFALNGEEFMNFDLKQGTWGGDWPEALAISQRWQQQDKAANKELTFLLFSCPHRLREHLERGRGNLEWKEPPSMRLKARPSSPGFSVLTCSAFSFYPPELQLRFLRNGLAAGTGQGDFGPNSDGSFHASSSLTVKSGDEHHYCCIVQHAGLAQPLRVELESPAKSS
Chain of FcRn (main, as listed by the source, chain 2 of 2): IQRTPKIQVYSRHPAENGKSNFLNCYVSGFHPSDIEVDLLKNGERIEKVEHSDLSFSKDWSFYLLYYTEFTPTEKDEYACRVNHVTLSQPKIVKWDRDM

Question: With Herceptin as the substance, how does the pKd read?
Answer: 8.55 and 8.90

Reference: patent US20250313602A1
